Each block holds one compound with its values, some of them ahead of it. Bridge positions count the residues as written; N and C are the ends. Square brackets hold non-standard residues; d marks the D form. Peptide text beside a SMILES is read from it. * marks the point of attachment. X1 = O=C(O)CN1CCN(CC(=O)O)CCN([C@H](CCC(=O)*)C(=O)O)CC1; dPhe(4-NHCONH2) = NC(=O)Nc1ccc(C[C@@H](N)C(=O)O)cc1; Dihydroorotyl(S) = O=C1C[C@@H](C(=O)*)NC(=O)N1; Phe(4-Cl) = N[C@@H](Cc1ccc(Cl)cc1)C(=O)O; Phe(4-NH2) = Nc1ccc(C[C@H](N)C(=O)O)cc1
Columns and labels:
human sst2 receptors = biological target: T1, human sst2 receptors (Homo sapiens, UniProt P30874); test: Saturation binding on HEK-hsst2 cells; settings: 2 hours at +4 °C
T1 construct: expressed in transfected cells; host or cells: HEK-293 (HEK-hsst2), a gift from Prof; Schulz, University of Jena
Protocol: The saturation binding experiments were performed with radioligand (^64/natCu-NODAGA-JR11 and ^64/natCu-DOTA-TATE) concentrations ranging from 0.5–75 nM and 0.5–90 nM, respectively, for 2 hours at +4 °C as described previously [24]. The Kd and Bmax values were calculated using GraphPad.

[1] = Biodistribution in HEK-hsst2 tumor-bearing mice; settings: female, Balb/c nude, mouse, in vivo, iv, total radioactivity

T1 sequence (P30874 whole entry): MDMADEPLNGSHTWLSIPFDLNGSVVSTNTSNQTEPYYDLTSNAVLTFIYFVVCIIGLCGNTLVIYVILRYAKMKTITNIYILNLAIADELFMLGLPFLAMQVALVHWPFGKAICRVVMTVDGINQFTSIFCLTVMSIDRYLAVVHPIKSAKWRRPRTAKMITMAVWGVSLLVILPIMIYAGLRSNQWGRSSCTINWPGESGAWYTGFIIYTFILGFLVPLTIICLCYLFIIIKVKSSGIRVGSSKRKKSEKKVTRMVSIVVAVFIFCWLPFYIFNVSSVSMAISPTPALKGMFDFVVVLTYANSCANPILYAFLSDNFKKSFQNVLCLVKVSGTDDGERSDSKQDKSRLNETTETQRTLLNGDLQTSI

Kd (human sst2 receptors): 5.7 ± 0.95 nM
Structure (SMILES): C[C@@H](O)[C@@H]1NC(=O)[C@H](CCCCN)NC(=O)[C@@H](Cc2ccc(NC(N)=O)cc2)NC(=O)[C@H](Cc2ccc(NC(=O)[C@@H]3CC(=O)NC(=O)N3)cc2)NC(=O)[C@H](NC(=O)[C@H](Cc2ccc(Cl)cc2)NC(=O)CC[C@H](C(=O)O)N2CCN(CC(=O)O)CCN(CC(=O)O)CC2)CSSC[C@@H](C(=O)N[C@H](Cc2ccc(O)cc2)C(N)=O)NC1=O [^64Cu-NODAGA-JR11, metal not drawn] (X1-[Phe(4-Cl)][dC][Phe(4-NH2)](Dihydroorotyl(S))[dPhe(4-NHCONH2)]KTC[dY]-NH2; disulfide 2-7)
tissue uptake at 1 h ([1]; 10 pmol, Adrenal uptake): 4.8 ± 0.8 %ID/g
tissue uptake at 4 h ([1]; 10 pmol, Adrenal uptake): 3.5 ± 0.9 %ID/g
tissue uptake at 24 h ([1]; 10 pmol, Adrenal uptake): 1.5 ± 0.6 %ID/g
tissue uptake at 1 h ([1]; 10 pmol, Blood uptake): 0.6 ± 0.2 %ID/g
tissue uptake at 4 h ([1]; 10 pmol, Blood uptake): 0.1 %ID/g
tissue uptake at 24 h ([1]; 10 pmol, Blood uptake): 0.1 %ID/g
tissue uptake at 1 h ([1]; 10 pmol, Bone uptake): 0.7 ± 0.2 %ID/g
tissue uptake at 4 h ([1]; 10 pmol, Bone uptake): 0.8 ± 0.2 %ID/g
tissue uptake at 24 h ([1]; 10 pmol, Bone uptake): 0.4 ± 0.2 %ID/g
tissue uptake at 1 h ([1]; 10 pmol, Heart uptake): 0.5 ± 0.1 %ID/g
tissue uptake at 4 h ([1]; 10 pmol, Heart uptake): 0.3 ± 0.1 %ID/g
tissue uptake at 24 h ([1]; 10 pmol, Heart uptake): 0.2 ± 0.1 %ID/g
tissue uptake at 1 h ([1]; 10 pmol, Intestine uptake): 0.9 ± 0.4 %ID/g
tissue uptake at 4 h ([1]; 10 pmol, Intestine uptake): 0.7 ± 0.1 %ID/g
tissue uptake at 24 h ([1]; 10 pmol, Intestine uptake): 0.4 %ID/g
tissue uptake at 1 h ([1]; 10 pmol, Kidney uptake): 10.3 ± 0.7 %ID/g
tissue uptake at 4 h ([1]; 10 pmol, Kidney uptake): 6.9 ± 0.9 %ID/g
tissue uptake at 24 h ([1]; 10 pmol, Kidney uptake): 2.2 ± 0.6 %ID/g
tissue uptake at 1 h ([1]; 10 pmol, Liver uptake): 1.7 ± 0.2 %ID/g
tissue uptake at 4 h ([1]; 10 pmol, Liver uptake): 0.7 ± 0.3 %ID/g
tissue uptake at 24 h ([1]; 10 pmol, Liver uptake): 0.3 ± 0.1 %ID/g
tissue uptake at 1 h ([1]; 10 pmol, Lung uptake): 3 ± 1 %ID/g
tissue uptake at 4 h ([1]; 10 pmol, Lung uptake): 0.8 ± 0.2 %ID/g
tissue uptake at 24 h ([1]; 10 pmol, Lung uptake): 0.5 ± 0.1 %ID/g
tissue uptake at 1 h ([1]; 10 pmol, Muscle uptake): 0.4 %ID/g
tissue uptake at 4 h ([1]; 10 pmol, Muscle uptake): 0.1 ± 0.1 %ID/g
tissue uptake at 24 h ([1]; 10 pmol, Muscle uptake): 0.04 %ID/g
tissue uptake at 1 h ([1]; 10 pmol, Pancreas uptake): 5.6 ± 0.6 %ID/g
tissue uptake at 4 h ([1]; 10 pmol, Pancreas uptake): 0.4 ± 0.1 %ID/g
tissue uptake at 24 h ([1]; 10 pmol, Pancreas uptake): 0.2 %ID/g
tissue uptake at 1 h ([1]; 10 pmol, Spleen uptake): 0.9 ± 0.2 %ID/g
tissue uptake at 4 h ([1]; 10 pmol, Spleen uptake): 1.2 ± 0.2 %ID/g
tissue uptake at 24 h ([1]; 10 pmol, Spleen uptake): 0.9 ± 0.1 %ID/g
tissue uptake at 1 h ([1]; 10 pmol, Stomach uptake): 4.9 ± 1.6 %ID/g
tissue uptake at 4 h ([1]; 10 pmol, Stomach uptake): 0.9 ± 0.2 %ID/g
tissue uptake at 24 h ([1]; 10 pmol, Stomach uptake): 0.4 %ID/g
tissue uptake at 1 h ([1]; 10 pmol, Tumor uptake): 20.6 ± 3.7 %ID/g
tissue uptake at 4 h ([1]; 10 pmol, Tumor uptake): 19 ± 3.1 %ID/g
tissue uptake at 24 h ([1]; 10 pmol, Tumor uptake): 7.7 ± 2.5 %ID/g
tissue uptake at 1 h ([1]; 200 pmol, Adrenal uptake): 2.1 ± 1.2 %ID/g
tissue uptake at 1 h ([1]; 200 pmol, Blood uptake): 0.5 ± 0.1 %ID/g
tissue uptake at 1 h ([1]; 200 pmol, Bone uptake): 0.5 ± 0.3 %ID/g
tissue uptake at 1 h ([1]; 200 pmol, Heart uptake): 0.3 ± 1 %ID/g
tissue uptake at 1 h ([1]; 200 pmol, Intestine uptake): 0.5 ± 0.1 %ID/g
tissue uptake at 1 h ([1]; 200 pmol, Kidney uptake): 10.6 ± 1.6 %ID/g
tissue uptake at 1 h ([1]; 200 pmol, Liver uptake): 1.6 ± 0.3 %ID/g
tissue uptake at 1 h ([1]; 200 pmol, Lung uptake): 0.4 ± 0.2 %ID/g
tissue uptake at 1 h ([1]; 200 pmol, Muscle uptake): 0.2 %ID/g
tissue uptake at 1 h ([1]; 200 pmol, Pancreas uptake): 1.7 ± 0.3 %ID/g
tissue uptake at 1 h ([1]; 200 pmol, Spleen uptake): 0.7 ± 0.1 %ID/g
tissue uptake at 1 h ([1]; 200 pmol, Stomach uptake): 1.7 ± 0.7 %ID/g
tissue uptake at 1 h ([1]; 200 pmol, Tumor uptake): 16.4 ± 0.7 %ID/g
tissue uptake at 1 h ([1]; 1000 pmol, Adrenal uptake): 1.4 ± 0.6 %ID/g
tissue uptake at 1 h ([1]; 1000 pmol, Blood uptake): 0.4 ± 0.1 %ID/g
tissue uptake at 1 h ([1]; 1000 pmol, Bone uptake): 0.8 ± 0.4 %ID/g
tissue uptake at 1 h ([1]; 1000 pmol, Heart uptake): 0.3 ± 0.1 %ID/g
tissue uptake at 1 h ([1]; 1000 pmol, Intestine uptake): 0.3 ± 0.1 %ID/g
tissue uptake at 1 h ([1]; 1000 pmol, Kidney uptake): 7.9 ± 0.4 %ID/g
tissue uptake at 1 h ([1]; 1000 pmol, Liver uptake): 1 ± 0.2 %ID/g
tissue uptake at 1 h ([1]; 1000 pmol, Lung uptake): 0.3 ± 0.1 %ID/g
tissue uptake at 1 h ([1]; 1000 pmol, Muscle uptake): 0.3 ± 0.2 %ID/g
tissue uptake at 1 h ([1]; 1000 pmol, Pancreas uptake): 0.8 ± 0.2 %ID/g
tissue uptake at 1 h ([1]; 1000 pmol, Spleen uptake): 0.5 ± 0.1 %ID/g
tissue uptake at 1 h ([1]; 1000 pmol, Stomach uptake): 0.9 ± 0.2 %ID/g
tissue uptake at 1 h ([1]; 1000 pmol, Tumor uptake): 9.7 ± 2.4 %ID/g
tissue uptake at 1 h ([1]; 2000 pmol, Adrenal uptake): 1.9 ± 0.7 %ID/g
tissue uptake at 1 h ([1]; 2000 pmol, Blood uptake): 0.3 ± 0.1 %ID/g
tissue uptake at 1 h ([1]; 2000 pmol, Bone uptake): 0.2 %ID/g
tissue uptake at 1 h ([1]; 2000 pmol, Heart uptake): 0.2 ± 0.1 %ID/g
tissue uptake at 1 h ([1]; 2000 pmol, Intestine uptake): 0.4 ± 0.1 %ID/g
tissue uptake at 1 h ([1]; 2000 pmol, Kidney uptake): 8.1 ± 0.7 %ID/g
tissue uptake at 1 h ([1]; 2000 pmol, Liver uptake): 0.8 ± 0.1 %ID/g
tissue uptake at 1 h ([1]; 2000 pmol, Lung uptake): 0.3 %ID/g
tissue uptake at 1 h ([1]; 2000 pmol, Muscle uptake): 0.2 %ID/g
tissue uptake at 1 h ([1]; 2000 pmol, Pancreas uptake): 0.6 ± 0.1 %ID/g
tissue uptake at 1 h ([1]; 2000 pmol, Spleen uptake): 0.6 ± 0.1 %ID/g
tissue uptake at 1 h ([1]; 2000 pmol, Stomach uptake): 0.8 ± 0.1 %ID/g
tissue uptake at 1 h ([1]; 2000 pmol, Tumor uptake): 9.2 ± 0.4 %ID/g

Structure (SMILES): C[C@@H](O)[C@H](NC(=O)[C@@H]1CSSC[C@H](NC(=O)[C@@H](Cc2ccccc2)NC(=O)CN2CCN(CC(=O)O)CCN(CC(=O)O)CCN(CC(=O)O)CC2)C(=O)N[C@@H](Cc2ccc(O)cc2)C(=O)N[C@H](Cc2c[nH]c3ccccc23)C(=O)N[C@@H](CCCCN)C(=O)N[C@@H]([C@@H](C)O)C(=O)N1)C(=O)O [^64Cu-DOTA-TATE, [^64Cu-DOTA, Tyr^3, Thr^8]octreotide, metal not drawn, reference compound]
tissue uptake at 1 h ([1]; 10 pmol, Adrenal uptake): 4.7 ± 1.5 %ID/g
tissue uptake at 24 h ([1]; 10 pmol, Adrenal uptake): 0.7 ± 0.3 %ID/g
tissue uptake at 1 h ([1]; 10 pmol, Blood uptake): 0.7 ± 0.2 %ID/g
tissue uptake at 4 h ([1]; 10 pmol, Blood uptake): 0.6 ± 0.1 %ID/g
tissue uptake at 24 h ([1]; 10 pmol, Blood uptake): 0.5 ± 0.05 %ID/g
tissue uptake at 1 h ([1]; 10 pmol, Bone uptake): 1.6 ± 0.5 %ID/g
tissue uptake at 24 h ([1]; 10 pmol, Bone uptake): 0.8 ± 0.1 %ID/g
tissue uptake at 1 h ([1]; 10 pmol, Heart uptake): 1.1 ± 0.1 %ID/g
tissue uptake at 4 h ([1]; 10 pmol, Heart uptake): 1.2 ± 0.3 %ID/g
tissue uptake at 24 h ([1]; 10 pmol, Heart uptake): 1.1 ± 0.2 %ID/g
tissue uptake at 24 h ([1]; 10 pmol, Intestine uptake): 2 ± 0.3 %ID/g
tissue uptake at 1 h ([1]; 10 pmol, Kidney uptake): 4.8 ± 0.5 %ID/g
tissue uptake at 4 h ([1]; 10 pmol, Kidney uptake): 3 ± 0.6 %ID/g
tissue uptake at 1 h ([1]; 10 pmol, Liver uptake): 6.1 ± 1.2 %ID/g
tissue uptake at 4 h ([1]; 10 pmol, Liver uptake): 5.2 ± 1.6 %ID/g
tissue uptake at 24 h ([1]; 10 pmol, Liver uptake): 4.6 ± 0.6 %ID/g
tissue uptake at 1 h ([1]; 10 pmol, Lung uptake): 9.8 ± 2.6 %ID/g
tissue uptake at 4 h ([1]; 10 pmol, Lung uptake): 5.4 ± 1.4 %ID/g
tissue uptake at 1 h ([1]; 10 pmol, Muscle uptake): 0.3 ± 0.1 %ID/g
tissue uptake at 4 h ([1]; 10 pmol, Muscle uptake): 0.2 ± 0.03 %ID/g
tissue uptake at 24 h ([1]; 10 pmol, Muscle uptake): 0.3 ± 0.1 %ID/g
tissue uptake at 1 h ([1]; 10 pmol, Pancreas uptake): 24.6 ± 2.4 %ID/g
tissue uptake at 4 h ([1]; 10 pmol, Pancreas uptake): 4.4 ± 1 %ID/g
tissue uptake at 24 h ([1]; 10 pmol, Pancreas uptake): 0.95 ± 0.1 %ID/g
tissue uptake at 4 h ([1]; 10 pmol, Spleen uptake): 1.1 ± 0.4 %ID/g
tissue uptake at 24 h ([1]; 10 pmol, Spleen uptake): 1.2 ± 0.1 %ID/g
tissue uptake at 1 h ([1]; 10 pmol, Stomach uptake): 16.1 ± 1.7 %ID/g
tissue uptake at 4 h ([1]; 10 pmol, Stomach uptake): 10.6 ± 1.6 %ID/g
tissue uptake at 24 h ([1]; 10 pmol, Stomach uptake): 3.1 ± 0.3 %ID/g
tissue uptake at 1 h ([1]; 10 pmol, Tumor uptake): 20.3 ± 2.5 %ID/g
tissue uptake at 4 h ([1]; 10 pmol, Tumor uptake): 14.9 ± 1 %ID/g

— paper PMC5906006 (PLoS ONE, 2018)
